Numbered stars: 1 amine (or outer) side, 2 acyl side, 3 side chain; on linkers, the order of the positions; unused ones are H or OH. Bridge positions count the residues as written; N and C are the ends. Side chains are listed from the residue outwards. Ends that are not written are not given here. * marks the point of attachment. C20 diacid = O=C(O)CCCCCCCCCCCCCCCCCCC(=O)*; γGlu = O=C(O)[C@H](CCC(=O)[*:2])N[*:1]; AEEA = NCCOCCOCC(=O)O
B1: N^ε1-[2-[2-[2-[[(4S)-4-carboxy-4-(19-carboxynonadecanoylamino)butanoyl]amino]ethoxy]ethoxy]acetyl]-[Gly14,Arg17,Pro21,Pro27,Pro31]-h-amylin (peptide)
peptide: K([AEEA-γGlu-C20 diacid])CNTATCATQRLAGFLRHSSPNFGAIPSSTPVGSNTY-NH2
modifications: disulfide 2-7; N-terminus assumed
SMILES: CC[C@H](C)[C@H](NC(=O)[C@H](C)NC(=O)CNC(=O)[C@H](Cc1ccccc1)NC(=O)[C@H](CC(N)=O)NC(=O)[C@@H]1CCCN1C(=O)[C@H](CO)NC(=O)[C@H](CO)NC(=O)[C@H](Cc1c[nH]cn1)NC(=O)[C@H](CCCNC(=N)N)NC(=O)[C@H](CC(C)C)NC(=O)[C@H](Cc1ccccc1)NC(=O)CNC(=O)[C@H](C)NC(=O)[C@H](CC(C)C)NC(=O)[C@H](CCCNC(=N)N)NC(=O)[C@H](CCC(N)=O)NC(=O)[C@@H](NC(=O)[C@H](C)NC(=O)[C@@H]1CSSC[C@H](NC(=O)[C@@H](N)CCCCNC(=O)COCCOCCNC(=O)CC[C@H](NC(=O)CCCCCCCCCCCCCCCCCCC(=O)O)C(=O)O)C(=O)N[C@@H](CC(N)=O)C(=O)N[C@@H]([C@@H](C)O)C(=O)N[C@@H](C)C(=O)N[C@@H]([C@@H](C)O)C(=O)N1)[C@@H](C)O)C(=O)N1CCC[C@H]1C(=O)N[C@@H](CO)C(=O)N[C@@H](CO)C(=O)N[C@H](C(=O)N1CCC[C@H]1C(=O)N[C@H](C(=O)NCC(=O)N[C@@H](CO)C(=O)N[C@@H](CC(N)=O)C(=O)N[C@H](C(=O)N[C@@H](Cc1ccc(O)cc1)C(N)=O)[C@@H](C)O)C(C)C)[C@@H](C)O
notes: also called compound 71
B2: N^ε1-[2-[2-[2-[[(4S)-4-carboxy-4-(19-carboxynonadecanoylamino)butanoyl]amino]ethoxy]ethoxy]acetyl]-[His14,Arg17,Pro21,Pro27,Arg34]-h-amylin (peptide)
peptide: K([AEEA-γGlu-C20 diacid])CNTATCATQRLAHFLRHSSPNFGAIPSSTNVGRNTY-NH2
modifications: disulfide 2-7; N-terminus assumed
SMILES: CC[C@H](C)[C@H](NC(=O)[C@H](C)NC(=O)CNC(=O)[C@H](Cc1ccccc1)NC(=O)[C@H](CC(N)=O)NC(=O)[C@@H]1CCCN1C(=O)[C@H](CO)NC(=O)[C@H](CO)NC(=O)[C@H](Cc1c[nH]cn1)NC(=O)[C@H](CCCNC(=N)N)NC(=O)[C@H](CC(C)C)NC(=O)[C@H](Cc1ccccc1)NC(=O)[C@H](Cc1c[nH]cn1)NC(=O)[C@H](C)NC(=O)[C@H](CC(C)C)NC(=O)[C@H](CCCNC(=N)N)NC(=O)[C@H](CCC(N)=O)NC(=O)[C@@H](NC(=O)[C@H](C)NC(=O)[C@@H]1CSSC[C@H](NC(=O)[C@@H](N)CCCCNC(=O)COCCOCCNC(=O)CC[C@H](NC(=O)CCCCCCCCCCCCCCCCCCC(=O)O)C(=O)O)C(=O)N[C@@H](CC(N)=O)C(=O)N[C@@H]([C@@H](C)O)C(=O)N[C@@H](C)C(=O)N[C@@H]([C@@H](C)O)C(=O)N1)[C@@H](C)O)C(=O)N1CCC[C@H]1C(=O)N[C@@H](CO)C(=O)N[C@@H](CO)C(=O)N[C@H](C(=O)N[C@@H](CC(N)=O)C(=O)N[C@H](C(=O)NCC(=O)N[C@@H](CCCNC(=N)N)C(=O)N[C@@H](CC(N)=O)C(=O)N[C@H](C(=O)N[C@@H](Cc1ccc(O)cc1)C(N)=O)[C@@H](C)O)C(C)C)[C@@H](C)O
notes: also called compound 84
B3: N^ε1-[2-[2-[2-[[(4S)-4-carboxy-4-(19-carboxynonadecanoylamino)butanoyl]amino]ethoxy]ethoxy]acetyl]-[His14,Arg17,Pro21,Pro27,His34]-h-amylin (peptide)
peptide: K([AEEA-γGlu-C20 diacid])CNTATCATQRLAHFLRHSSPNFGAIPSSTNVGHNTY-NH2
modifications: disulfide 2-7; N-terminus assumed
SMILES: CC[C@H](C)[C@H](NC(=O)[C@H](C)NC(=O)CNC(=O)[C@H](Cc1ccccc1)NC(=O)[C@H](CC(N)=O)NC(=O)[C@@H]1CCCN1C(=O)[C@H](CO)NC(=O)[C@H](CO)NC(=O)[C@H](Cc1c[nH]cn1)NC(=O)[C@H](CCCNC(=N)N)NC(=O)[C@H](CC(C)C)NC(=O)[C@H](Cc1ccccc1)NC(=O)[C@H](Cc1c[nH]cn1)NC(=O)[C@H](C)NC(=O)[C@H](CC(C)C)NC(=O)[C@H](CCCNC(=N)N)NC(=O)[C@H](CCC(N)=O)NC(=O)[C@@H](NC(=O)[C@H](C)NC(=O)[C@@H]1CSSC[C@H](NC(=O)[C@@H](N)CCCCNC(=O)COCCOCCNC(=O)CC[C@H](NC(=O)CCCCCCCCCCCCCCCCCCC(=O)O)C(=O)O)C(=O)N[C@@H](CC(N)=O)C(=O)N[C@@H]([C@@H](C)O)C(=O)N[C@@H](C)C(=O)N[C@@H]([C@@H](C)O)C(=O)N1)[C@@H](C)O)C(=O)N1CCC[C@H]1C(=O)N[C@@H](CO)C(=O)N[C@@H](CO)C(=O)N[C@H](C(=O)N[C@@H](CC(N)=O)C(=O)N[C@H](C(=O)NCC(=O)N[C@@H](Cc1c[nH]cn1)C(=O)N[C@@H](CC(N)=O)C(=O)N[C@H](C(=O)N[C@@H](Cc1ccc(O)cc1)C(N)=O)[C@@H](C)O)C(C)C)[C@@H](C)O
notes: also called compound 80
B4: N^ε1-[2-[2-[2-[[(4S)-4-carboxy-4-(19-carboxynonadecanoylamino)butanoyl]amino]ethoxy]ethoxy]acetyl]-[His14,Arg17,Pro21,Pro27]-h-amylin (peptide)
peptide: K([AEEA-γGlu-C20 diacid])CNTATCATQRLAHFLRHSSPNFGAIPSSTNVGSNTY-NH2
modifications: disulfide 2-7; N-terminus assumed
SMILES: CC[C@H](C)[C@H](NC(=O)[C@H](C)NC(=O)CNC(=O)[C@H](Cc1ccccc1)NC(=O)[C@H](CC(N)=O)NC(=O)[C@@H]1CCCN1C(=O)[C@H](CO)NC(=O)[C@H](CO)NC(=O)[C@H](Cc1c[nH]cn1)NC(=O)[C@H](CCCNC(=N)N)NC(=O)[C@H](CC(C)C)NC(=O)[C@H](Cc1ccccc1)NC(=O)[C@H](Cc1c[nH]cn1)NC(=O)[C@H](C)NC(=O)[C@H](CC(C)C)NC(=O)[C@H](CCCNC(=N)N)NC(=O)[C@H](CCC(N)=O)NC(=O)[C@@H](NC(=O)[C@H](C)NC(=O)[C@@H]1CSSC[C@H](NC(=O)[C@@H](N)CCCCNC(=O)COCCOCCNC(=O)CC[C@H](NC(=O)CCCCCCCCCCCCCCCCCCC(=O)O)C(=O)O)C(=O)N[C@@H](CC(N)=O)C(=O)N[C@@H]([C@@H](C)O)C(=O)N[C@@H](C)C(=O)N[C@@H]([C@@H](C)O)C(=O)N1)[C@@H](C)O)C(=O)N1CCC[C@H]1C(=O)N[C@@H](CO)C(=O)N[C@@H](CO)C(=O)N[C@H](C(=O)N[C@@H](CC(N)=O)C(=O)N[C@H](C(=O)NCC(=O)N[C@@H](CO)C(=O)N[C@@H](CC(N)=O)C(=O)N[C@H](C(=O)N[C@@H](Cc1ccc(O)cc1)C(N)=O)[C@@H](C)O)C(C)C)[C@@H](C)O
notes: also called compound 69

Biological target: T1, human calcitonin receptor (human, UniProt P30988 25-474)
T1 construct: whole, on cells; also called hCTR; hCT
T1 sequence (looked up): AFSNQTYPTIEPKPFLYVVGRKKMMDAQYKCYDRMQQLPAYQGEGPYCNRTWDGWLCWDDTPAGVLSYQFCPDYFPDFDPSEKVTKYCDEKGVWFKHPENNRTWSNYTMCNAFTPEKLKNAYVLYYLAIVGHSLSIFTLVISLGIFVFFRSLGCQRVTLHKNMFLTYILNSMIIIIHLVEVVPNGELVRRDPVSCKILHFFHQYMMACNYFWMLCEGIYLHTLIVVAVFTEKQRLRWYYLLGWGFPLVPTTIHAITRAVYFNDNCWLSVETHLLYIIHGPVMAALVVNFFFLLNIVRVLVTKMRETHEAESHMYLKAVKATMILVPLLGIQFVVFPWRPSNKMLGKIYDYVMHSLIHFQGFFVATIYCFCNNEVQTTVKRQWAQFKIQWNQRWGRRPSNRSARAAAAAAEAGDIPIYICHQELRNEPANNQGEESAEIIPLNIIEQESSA
Assay: SPA radioligand competition (125I-calcitonin), membranes of BHK cells with human calcitonin receptor
Description: Membranes were prepared in the following way; the cells were rinsed with PBS and incubated with Versene for approximately 5 min before harvesting. The cells were flushed with PBS and the cell-suspension was centrifuged for 5 min at 1000 rpm. Cells were homogenized (Ultrathurrax) in a buffer containing 20 mM Na-HEPES and 10 mM EDTA (pH 7.4) and centrifuged at 20.000 rpm for 15 min. The resulting pellet was resuspended, homogenized and centrifuged (20.000 rpm, 15 min) in a buffer containing 20 mM Na-HEPES and 0.1 mM EDTA (pH 7.4, buffer 2). The resulting pellet was resuspended in buffer 2 and protein concentration was measured (BCA protein Assay, Pierce). The homogenate was kept cold during the whole procedure. The membranes were kept at −80° C. until use. Assay was performed in a 384 well Optiplate (PerkinElmer) in a total volume of 40 ul. Membranes were mixed with SPA beads. Final concentration of membranes 35 ng/μL final and Final concentration of SPA beads was 0.05 mg/well. Test-compounds were dissolved in DMSO and further diluted in assay buffer (50 mM Hepes, pH 7.4, 1 mM CaCl2, 5 mM MgCl₂, 0.1% OA and 0.02% Tween20). […] The final mixture was incubated for 120 min with shaking at 400 rpm at 25° C. prior to centrifugation (1500 rpm, 10 min). Samples were analyzed on TopCounter™ (Packard). The […] was calculated using (one site binding competition analysis) GraphPad Prism5 as a measure of receptor affinity.

Question: Which IC50 does the source give for B1 here?
Answer: 1.53 nM

Question: B2 was tested. Which IC50 did it give?
Answer: 88.9 nM

Question: B3 was tested. Which IC50 did it give?
Answer: 19.8 nM

Question: B4 was tested. Which IC50 did it give?
Answer: 8.68 nM

Biological target: T1, human calcitonin receptor
Assay: ratio of IC50 at human calcitonin receptor to IC50 at human amylin receptor (SPA competition assays)
Description: The resulting pellet was resuspended, homogenized and centrifuged (20.000 rpm, 15 min) in a buffer containing 20 mM Na-HEPES and 0.1 mM EDTA (pH 7.4, buffer 2). The resulting pellet was resuspended in buffer 2 and protein concentration was measured (BCA protein Assay, Pierce). The homogenate was kept cold during the whole procedure. The membranes were kept at −80° C. until use. The assay was performed in a 384 well Optiplate (PerkinElmer) in a total volume of 40 ul. Membranes were mixed with SPA beads. Final concentration of membranes 35 ng/μL final and SPA beads was 0.05 mg/well. Test-compounds were dissolved in DMSO and further diluted in assay buffer (50 mM Hepes, pH 7.4, 1 mM CaCl2, 5 mM MgCl₂, 0.1% OA and 0.02% Tween20). […] The final mixture was incubated with shaking at 400 rpm for 120 min at 25° C. prior to centrifugation (1500 rpm, 10 min). Samples were analyzed on TopCounter™ (Packard). The IC₅₀ was calculated using (one site binding competition analysis) GraphPad Prism5 as a measure of receptor affinity.
Membranes were prepared in the following way; the cells were rinsed with PBS and incubated with Versene for approximately 5 min before harvesting. The cells were flushed with PBS and the cell-suspension was centrifuged for 5 min at 1000 rpm. Cells were homogenized (Ultrathurrax) in a buffer containing 20 mM Na-HEPES and 10 mM EDTA (pH 7.4) and centrifuged at 20.000 rpm for 15 min. The resulting pellet was resuspended, homogenized and centrifuged (20.000 rpm, 15 min) in a buffer containing 20 mM Na-HEPES and 0.1 mM EDTA (pH 7.4, buffer 2). The resulting pellet was resuspended in buffer 2 and protein concentration was measured (BCA protein Assay, Pierce). The homogenate was kept cold during the whole procedure. The membranes were kept at −80° C. until use. Assay was performed in a 384 well Optiplate (PerkinElmer) in a total volume of 40 ul. Membranes were mixed with SPA beads.

Question: Which “Ratio hCT/hAmylin binding” value does the source give for B1 here?
Answer: 32

Question: For B2, which “Ratio hCT/hAmylin binding” value is on record?
Answer: 120

Question: How did the “Ratio hCT/hAmylin binding” value turn out when B3 was run?
Answer: 68.1

Question: How did the “Ratio hCT/hAmylin binding” value turn out when B4 was run?
Answer: 65.3
